Assays:
Assay type in all cases: biochemical
[1] = Conversion of Hipp-Arg by purified HCPB mutants, 30 minutes, HPLC (Example 17); conditions: 0.5 mM substrate, 30 minutes at 37° C.
Method: (§1) Purified mutants of human CPB (D253K; [G251K,D253R]; [G251N,D253R]; [I201S,D253K]; [G251N,D253K]; [Q54R,D145A,D253K]; [G251T,D253K]; [G251S,D253K]; [A248N,G251N,D253K]; [A248S,G251N,D253K] and [S205N,G251N,D253K]—described in Examples 3, 12, 13, 16, 28, 30, 31, 32 and 33) were assayed for their ability to convert hippuryl-L-glutamic acid (Hipp-Glu—Reference Example 1), hippuryl-L-aspartic acid (Hipp-Asp—Reference Example 2) and hippuryl-L-arginine (Sigma Chemical Company—cat no. H6625) to hippuric acid using a HPLC based assay similar to that described in Example 6.
(§2) Samples were incubated for 30 minutes at 37° C. The reactions were terminated by the addition of 500 μl of 40% methanol, 60% distilled water, 0.2% trifluoro acetic acid and the amount of hippuric acid generated was quantitated by HPLC as described in Example 6 but using a mobile phase of 20% methanol, 80% 50 mM phosphate buffer, pH 6.5. Hippuric acid was detected at 230 nm. The results are shown in Table 5 and are expressed as the percentage conversion of substrate into product in 30 minutes at 37° C.

[2] = Km and kcat of HCPB mutants with Hipp-Glu (Example 7); conditions: Hipp-Glu 0.25-8.0 mM; pH 7.5; 5 h at 37° C.
Method: Hipp-Glu and Hipp-Asp were diluted in range 0.25-8.0 mM and 0.25-5.0 mM respectively in 0.025 M Tris-HCL buffer, pH 7.5. Where necessary substrate samples were adjusted to pH 7.5 with 1M NaOH.
Samples were incubated for 5 h at 37° C. Reactions were terminated by the addition of 500 μl methanol/distilled water (80/20) containing 0.2% TFA. The amount of hippuric acid produced was quantified by HPLC as described in Example 6.
Km and Vmax values were calculated using the ENZFITTER software programme (Biosoft, Perkin Elmer).

[3] = Conversion of Hipp-Glu by purified HCPB mutants, 30 minutes, HPLC (Example 17); conditions: 0.5 mM substrate, 30 minutes at 37° C.
Method: as §1, §2

[4] = Conversion of Hipp-Asp by purified HCPB mutants, 30 minutes, HPLC (Example 17); conditions: 0.5 mM substrate, 30 minutes at 37° C.
Method: as §1, §2

[5] = Conversion of Hipp-Glu by periplasmic shockate of HCPB mutants, 24 h (Example 18); conditions: 24 h at 37° C.
Method: (§3) The activity of [G251T,D253K]HCPB was measured using the assay conditions described in Example 17 but using either 50 μl of a neat or 1 in 10 or 1 in 100 dilution of [G251T,D253K]HCPB crude E.coli periplasmic shockate (shockate) sample in place of purified enzyme. Samples were incubated for 24 h at 37° C. […] For other HCPB mutants, the reaction volume was 250 μl and contained 125 μl of neat shockate or 1 in 50 dilution of shockate. The shockate samples were prepared as described in Example 16. The amount of Hippuric acid produced in 24 h was quantified by HPLC as described in Example 17 and the results are shown in Table 6 and are expressed as the percentage conversion of substrate into product in 24 h at 37° C.

[6] = Conversion of Hipp-Asp by periplasmic shockate of HCPB mutants, 24 h (Example 18); conditions: shockate concentration in reaction mixture 50 %; 24 h at 37° C.
Method: as §3

[7] = Conversion of prodrug of Example 24 to drug of Example 25 by HCPB mutants, HPLC (Example 20); conditions: enzyme 15 μg/ml; 0.5 mM prodrug of Example 24; 5 minutes at 37° C.
Method: The reaction was stopped by adding MeCN (500 μl) plus 0.2% Trifluoroacetic acid. The amount of drug produced was then quantified by HPLC.
HPLC separation was carried out as described in Example 6 except that a mobile phase of 70% MeCN, 30% distilled water and 0.1% trifluoroacetic acid was used to achieve separation of prodrug (retention time 3.8 minutes) and drug (retention time 4.9 minutes) and the compounds were detected at 260 nm. The amount of drug produced was quantified from calibration curves generated with known amounts of drug.
The amount of [Q54R,D145A,D253K]HCPB and [G251T,D253K]HCPB mutants was reduced to 0.75 μg in the reaction mixture.

[8] = shockate concentration in reaction mixture 1 %
[9] = shockate concentration in reaction mixture 50 %

Molecule | Hipp-Arg (% conversion) ([1]; enzyme 0.25 μg/ml) [%] | Hipp-Arg (% conversion) ([1]; enzyme 25 μg/ml) [%] | Km [2] [µM] | kcat, Hipp-Glu [2] [s⁻¹] | Hipp-Glu (% conversion) ([3]; enzyme 0.25 μg/ml) [%] | Hipp-Glu (% conversion) ([3]; enzyme 25 μg/ml) [%] | Hipp-Asp (% conversion) ([4]; enzyme 0.25 μg/ml) [%] | Hipp-Asp (% conversion) ([4]; enzyme 25 μg/ml) [%] | Hipp-Glu (% conversion) [5, 8] [%] | Hipp-Glu (% conversion) [5, 9] [%] | Hipp-Asp (% conversion) [6] [%] | Hipp-Arg (% conversion) ([1]; enzyme 0.5 μg/ml) [%] | Hipp-Glu (% conversion) ([3]; enzyme 0.5 μg/ml) [%] | Hipp-Asp (% conversion) ([4]; enzyme 0.5 μg/ml) [%] | Hipp-Arg (% conversion) ([1]; enzyme 2.5 μg/ml) [%] | Hipp-Glu (% conversion) ([3]; enzyme 2.5 μg/ml) [%] | Hipp-Asp (% conversion) ([4]; enzyme 2.5 μg/ml) [%] | Prodrug Hydrolysis (%) [7] [%]
[A248S,G251T,D253K]HCPB: HCPB mutant with A248S, G251T and D253K, (His)6-c-myc tag (protein, UniProt P15086 111-417, looked up, variant A248S G251T D253K, (His)6-c-myc tag) Carboxypeptidase B: ATGHSYEKYNKWETIEAWTQQVATENPALISRSVIGTTFEGRAIYLLKVGKAGQNKPAIFMDCGFHAREWISPAFCQWFVREAVRTYGREIQVTELLDKLDFYVLPVLNIDGYIYTWTKSRFWRKTRSTHTGSSCIGTDPNRNFDAGWCEIGASRNPCDETYCGPAAESEKETKALADFIRNKLSSIKAYLTIHSYSQMMIYPYSYAYKLGENNAELNALAKATVKELASLHGTKYTYGPGATTIYPSAGTSKDWAYDQGIRYSFTFELRDTGRYGFLLPESQIRATCEETFLAIKYVASYVLEHLY | 0 | 0 | 1100 | 19 | 14.5 | 93 | 0 | 5.5 | 20 | 91.3 | 0.5 | – | – | – | – | – | – | –
[S205N, G251N, D253K]: HCPB mutant with S205N, G251N and D253K, (His)6-c-myc tag (protein, UniProt P15086 111-417, looked up, variant S205N G251N D253K, (His)6-c-myc tag) Carboxypeptidase B: ATGHSYEKYNKWETIEAWTQQVATENPALISRSVIGTTFEGRAIYLLKVGKAGQNKPAIFMDCGFHAREWISPAFCQWFVREAVRTYGREIQVTELLDKLDFYVLPVLNIDGYIYTWTKSRFWRKTRSTHTGSSCIGTDPNRNFDAGWCEIGASRNPCDETYCGPAAESEKETKALADFIRNKLSSIKAYLTIHSYSQMMIYPYNYAYKLGENNAELNALAKATVKELASLHGTKYTYGPGATTIYPAAGNSKDWAYDQGIRYSFTFELRDTGRYGFLLPESQIRATCEETFLAIKYVASYVLEHLY | – | 0.2 | – | – | – | 85 | – | 0.48 | – | 14.1 | 0 | 0 | 7.9 | 0 | – | – | – | –
[G251N, D253K, T266G]: HCPB mutant with G251N, D253K and T266G, (His)6-c-myc tag (protein, UniProt P15086 111-417, looked up, variant G251N D253K T266G, (His)6-c-myc tag) Carboxypeptidase B: ATGHSYEKYNKWETIEAWTQQVATENPALISRSVIGTTFEGRAIYLLKVGKAGQNKPAIFMDCGFHAREWISPAFCQWFVREAVRTYGREIQVTELLDKLDFYVLPVLNIDGYIYTWTKSRFWRKTRSTHTGSSCIGTDPNRNFDAGWCEIGASRNPCDETYCGPAAESEKETKALADFIRNKLSSIKAYLTIHSYSQMMIYPYSYAYKLGENNAELNALAKATVKELASLHGTKYTYGPGATTIYPAAGNSKDWAYDQGIRYSFGFELRDTGRYGFLLPESQIRATCEETFLAIKYVASYVLEHLY | – | – | – | – | – | – | – | – | – | 0.95 | 3.4 | – | – | – | – | – | – | –
[A248N, G251T, D253K]: HCPB mutant with A248N, G251T and D253K, (His)6-c-myc tag (protein, UniProt P15086 111-417, looked up, variant A248N G251T D253K, (His)6-c-myc tag) Carboxypeptidase B: ATGHSYEKYNKWETIEAWTQQVATENPALISRSVIGTTFEGRAIYLLKVGKAGQNKPAIFMDCGFHAREWISPAFCQWFVREAVRTYGREIQVTELLDKLDFYVLPVLNIDGYIYTWTKSRFWRKTRSTHTGSSCIGTDPNRNFDAGWCEIGASRNPCDETYCGPAAESEKETKALADFIRNKLSSIKAYLTIHSYSQMMIYPYSYAYKLGENNAELNALAKATVKELASLHGTKYTYGPGATTIYPNAGTSKDWAYDQGIRYSFTFELRDTGRYGFLLPESQIRATCEETFLAIKYVASYVLEHLY | – | – | – | – | – | – | – | – | 53.5 | 95 | 1 | – | – | – | – | – | – | –
[A248S, G251N, D253K]: HCPB mutant with A248S, G251N and D253K, (His)6-c-myc tag (protein, UniProt P15086 111-417, looked up, variant A248S G251N D253K, (His)6-c-myc tag) Carboxypeptidase B: ATGHSYEKYNKWETIEAWTQQVATENPALISRSVIGTTFEGRAIYLLKVGKAGQNKPAIFMDCGFHAREWISPAFCQWFVREAVRTYGREIQVTELLDKLDFYVLPVLNIDGYIYTWTKSRFWRKTRSTHTGSSCIGTDPNRNFDAGWCEIGASRNPCDETYCGPAAESEKETKALADFIRNKLSSIKAYLTIHSYSQMMIYPYSYAYKLGENNAELNALAKATVKELASLHGTKYTYGPGATTIYPSAGNSKDWAYDQGIRYSFTFELRDTGRYGFLLPESQIRATCEETFLAIKYVASYVLEHLY | – | 0 | – | – | – | 86 | – | 1.3 | – | 46.1 | 1 | 0 | 10.7 | 0 | – | – | – | –
[A248N, G251N, D253K]: HCPB mutant with A248N, G251N and D253K, (His)6-c-myc tag (protein, UniProt P15086 111-417, looked up, variant A248N G251N D253K, (His)6-c-myc tag) Carboxypeptidase B: ATGHSYEKYNKWETIEAWTQQVATENPALISRSVIGTTFEGRAIYLLKVGKAGQNKPAIFMDCGFHAREWISPAFCQWFVREAVRTYGREIQVTELLDKLDFYVLPVLNIDGYIYTWTKSRFWRKTRSTHTGSSCIGTDPNRNFDAGWCEIGASRNPCDETYCGPAAESEKETKALADFIRNKLSSIKAYLTIHSYSQMMIYPYSYAYKLGENNAELNALAKATVKELASLHGTKYTYGPGATTIYPNAGNSKDWAYDQGIRYSFTFELRDTGRYGFLLPESQIRATCEETFLAIKYVASYVLEHLY | 0 | 1.4 | – | – | 25.3 | 100 | 0.6 | 2.5 | – | 63.9 | 0 | – | – | – | – | – | – | –
[G251N,D253R]: HCPB mutant with G251N and D253R, (His)6-c-myc tag (protein, UniProt P15086 111-417, looked up, variant G251N D253R, (His)6-c-myc tag) Carboxypeptidase B: ATGHSYEKYNKWETIEAWTQQVATENPALISRSVIGTTFEGRAIYLLKVGKAGQNKPAIFMDCGFHAREWISPAFCQWFVREAVRTYGREIQVTELLDKLDFYVLPVLNIDGYIYTWTKSRFWRKTRSTHTGSSCIGTDPNRNFDAGWCEIGASRNPCDETYCGPAAESEKETKALADFIRNKLSSIKAYLTIHSYSQMMIYPYSYAYKLGENNAELNALAKATVKELASLHGTKYTYGPGATTIYPAAGNSRDWAYDQGIRYSFTFELRDTGRYGFLLPESQIRATCEETFLAIKYVASYVLEHLY | – | 0 | – | – | – | 57 | – | 9.4 | – | – | – | – | – | – | 0 | 8.8 | 1.4 | 66.7

Source: patent US6436691B1, “Chemical compounds” (Zeneca Limited, priority 1995, dated 2002)
